Measured values: the nanobody polyreactivity screen of Harvey et al. (2022)

test: yeast display, Sf9 membrane polyspecificity reagent, FACS + sequencing; frameworks hold sequencing errors
Summary of the method: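 Sorting gates, low and high (top ~1%), were placed on anti-HA fluorescence to track expression and on streptavidin fluorescence to track reagent binding. A clone's polyreactivity label is taken from the gate it came out of. The reagent was 10% biotinylated, detergent-solubilized Sf9 membrane, applied for 1 hour at 4 °C to galactose-induced yeast display cells.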

For “QVQLVESGGGLVQAGGSLRLSCADSGRTFNYYDMGWYRQAPGKERELVASITGSGGNTYYADSVKGRFTFSRDNAKNTVYLQMNSLKPEDTAVYYCAKAIGNFLYYYWLYHSSYEYDYWGQGTQVTVSS”, which “polyreactivity (PSR sort gate)” value is on record?
Its value is “low polyreactivity”.

Which “polyreactivity (PSR sort gate)” value does the source give for “QVQLVESGGGLLQAGGSLRLSCAASGRIGRYAMGCYRQAPGKERQLVAVITSGDSTYYADSVKGRFTISRDNAKNTVYLQMNSLKPEESPVESCAADSYRRWGNLFTGNEYDSWGQGTQVTVSS” here?
The value was “low polyreactivity”.

Which “polyreactivity (PSR sort gate)” value does the source give for “QVQLVESGGGLVQAGGSLRLSCAASGFIFTKYVMGWYRQAPGKERELVAAISLNGGRTYYADSVKGRFTISRDNAKNTVDLQMNSLKPEDTAVYYCAVDAKAVSARTYDYGYWGQGTQVTVSS” here?
Its value is “high polyreactivity”.

Which “polyreactivity (PSR sort gate)” value does the source give for “QGQLVESGGGLVQAGGTLRLSCAASGSTFAVYVMGGYRQAPGTERELVAAISTSGARTYYADSVKGRFTISRDNAKNTVYLQMNSLKPEDTAVYYCAARSNALFRFDYWGQGTQVTVSS” here?
Its value is “high polyreactivity”.

With “QVQLVESGGGLVQAGGSLRLSCAASGRTFLFYAMGWYRQAPGKERELVAAIRRGGSTYYADSVKGRFTISRDNAKNTVYLQMNSLKPEDTAVYYCNAGSALRRSYYRYYYWGQGTQVTVSS” as the sequence, how does the “polyreactivity (PSR sort gate)” value read?
Its value is “high polyreactivity”.

Which “polyreactivity (PSR sort gate)” value does the source give for “QVQLVESVGGLVQAGGSLRLSCAASGRTFVYNAMGWYRQAPGKEREFVGAISDGGGDTYYADSVKGRFTISRDNAKNTVFLQMNSLKPEVTAVYYCNVEWQQPGYAFDYCGQGTQVTVSS” here?
The value was “low polyreactivity”.

For “QVLLQESGGGLVLAGGSLRLGCAASGTISPAYYMGRYHQAPGKEREFVAAITYGTNTYYADSVKGRFTISRDNAKYTVYLQMHSLKPEDTAVYYCSATAGYNGAHDYWGQGTQVTVSS”, which “polyreactivity (PSR sort gate)” value is on record?
The value was “low polyreactivity”.

For “QVQLVESGGGLVQAGGSLRLSCAASGITFYTYAMGWYRQAPGKERELVAAISTGGSTYYADSVKGRFTISRDNAKNTVYLQMNSLKPEDTAVYYCAARTFSYPRRAYYYWGQGTQVTVSS”, which “polyreactivity (PSR sort gate)” value is on record?
The value was “high polyreactivity”.

With “QVQLVESGGGLVQAGASLRLSCAASGGILRQNTMGWYRQAPGKERELVAAISSSGGRTYYADSVKGRFTISRDNAKNTVYLQMNSLKPEDTAVYYCNVPAKRYPYYIRQSTVSPGNYWGQGTKVTVSS” as the sequence, how does the “polyreactivity (PSR sort gate)” value read?
The value was “high polyreactivity”.

Which “polyreactivity (PSR sort gate)” value does the source give for “QVQLVESGGGLVQAGGSLRLSCAASGSTFSKNAMGWNRQAPGKERELFAAIRSRGGSTYYADSVKGRFTISRDNAKNTVYLQMNSLKPEDTAVYYCNKVRAYECDYWGQGTKVTVSS” here?
Its value is “high polyreactivity”.

For “QVQLVESGGGLVQAGGSLRLSCGASGRTFSYYPMGWYRQAPGKERELVAAITSSGGRTYYADSVKGRFTISRDNAKNTVYLQMNSLKPEDTAVYYCAKELVKRYYWGQGTQVTVSS”, which “polyreactivity (PSR sort gate)” value is on record?
The value was “high polyreactivity”.

With “QVQLVESGGGLVQAGGSLRLSCAASGSTFYWYAMGWYRQAPGKERELVAAITYSSGRTYYADSVKGRFTISRDNAKNTVYLQMNSLKPEDTAVYYCGWSALNGYDYWGQGTQVTVSS” as the sequence, how does the “polyreactivity (PSR sort gate)” value read?
Its value is “high polyreactivity”.

With “QVQLVESGGGLVQAGGSLRLSCAASGSIFRIYAMGWYRQAPGKERELVAAISRGSTRTYYADSVKGRFTISRDNAKNTVYLQMNSLKPEDTAVYYCAKRGISPYGYWGQGTQVTVSS” as the sequence, how does the “polyreactivity (PSR sort gate)” value read?
The value was “high polyreactivity”.

For “QVQLVESGGGLVQAGGSLRLSCAASGSTFKPYTMGWYRQAPGKERELVAGISSVDSTDYADSVKGRFTISRDNAKNTVYLQMNSLKPEDTAVYYCNKRKWPTFTYAMNYWGQGTQVSVSS”, which “polyreactivity (PSR sort gate)” value is on record?
The value was “low polyreactivity”.

With “QVQLVESGGGLVQAGGSLRLSCAASGRTFSGYAMGWYRQAPGKARELVAGITWNGGRTYYADSVKGRFTISRDNAKNTVYLQMNSLKPEDTAVYYCNKLGAVYPKYGYWGQGTQVTVSS” as the sequence, how does the “polyreactivity (PSR sort gate)” value read?
The value was “high polyreactivity”.

With “QVQLVESGGGLVQAGGSLLLSCAASGFNFTYYTMGWYRQAPGKERELVAAISYSGGSTYYAESVKGRFTISRDNAKNSVYLQMNSLKPEDTAVYYCAVRVSDKYISKRFEYWGQGTEVTVSS” as the sequence, how does the “polyreactivity (PSR sort gate)” value read?
Its value is “high polyreactivity”.

Which “polyreactivity (PSR sort gate)” value does the source give for “QVQLVESGGGLVQAGGSLRLSCAASGSTFPGYDMGWYRQAPGKERELVAAISWRDGRTFYADSVKGRFTISRDNAKNTVYLQMNSLKPEDSAVYYCAAAQRTAYLTYSYKYNYWGQCTQVTVSS” here?
The value was “high polyreactivity”.
